Reference: paper PMC12395675

What was measured:
[1] = BAC transfection of Vero cells; CPE, western blot; settings: glycan lost; control: rPEDV-WT
[2] = viral titre at 24 hpi, MOI 0.01; settings: glycan lost; control: rPEDV-WT

| Protein | other: virus rescue (viability), other: viruses recovered/attempts [1] | other: viral replication [2] |
| --- | --- | --- |
| spike (S) protein: N514Q (protein) parent chain: MKSLTYFWLFLPVLSTLSLPQDVTRCSANTNFRRFFSKFNVQAPAVVVLGGYLPIGENQGVNSTWYCAGQHPTASGVHGIFVSHIRGGHGFEIGISQEPFDPSGYQLYLHKATNGNTNATARLRICQFPSIKTLGPTANNDVTTGRNCLFNKAIPAHMSEHSVVGITWDNDRVTVFSDKIYYFYFKNDWSRVATKCYNSGGCAMQYVYEPTYYMLNVTSAGEDGISYQPCTANCIGYAANVFATEPNGHIPEGFSFNNWFLLSNDSTLVHGKVVSNQPLLVNCLLAIPKIYGLGQFFSFNQTIDGVCNGAAVQRAPEALRFNINDTSVILAEGSIVLHTALGTNFSFVCSNSSDPHLATFATPLGATQVPYYCFLKVDTYNSTVYKFLAILPPTVREIVITKYGDFYVNGFGYLHLGLLDAVTINFTGHGTDDDVSGFWTIASTNFVDALIEVQGTAIQRILYCDDPVSQLKCSQVSFDLDDGFYPISSRNLLSHEQPISFVTLPSFNDHSFVNITVSASFGGHSGANLIASDTTINGFSSFCVETRQFTISLFYNVTNSYGYVSKSQDSNCPFTLQSVNDYLSFSKFCVSTSLLASACTIDLFGYPEFGSGVKFTSLYFQFTKGELITGTPKPLVGVTDVSFMTLDVCTKYTIYGFKGEGIITLTNSSFLAGIYYTSDSGQLLAFKNVTSGAVYSVTPCSFSEQAAYVDDDIVGVISSLSNSTFNSTRELPGFFYHSNDGSNCTEPVLVYSNIGVCKSGSIGYVLSKSGQVKIAPTVTGNISIPTNFSMSIRTEYLQLYNTPVSVDCATYVCNGNSRCKQLLTQYIAACKTIESALQLSARLESAEVNSMLTISEEALQLATISSFNGDGYNFTNVLGVSVRDPASGRVVQKRSFIEDLLFNKVVTNGLGTVDEDYKRCSNGRSVADLVCAQYYSGVMVLPGVVDAEKLHMYSASLIGGMVLGGFTAAAALPFSYAVQARLNYLALQTDVLQRNQQLLAESFNSAIGDITSAFESVKEAISQTSKGLNTVAHALTKVQEVVNSQGAALTQLTVQLQHNFQAISSSIDDIYSRLDILSADVQVDRLITGRLSALNAFVAQTLTKYTEVQASRKLAQQKVNECVKSQSQRYGFCGGDGEHIFSLVQAAPQGLLFLHTVLVPGDFVDVIAIAGLCVNDEIALTLREPGLVLFTHELQNHTATEYFVSSRRMFEPRKPTVSDFVQIESCVVTYVNLTRDQLPDVIPDYIDVNKTLYEILASLPNRTGPSLPLDVFNATYLNLTGEIADLEQRSESLRNTTEELQSLIYNINNTLVDLEWLNRVETYIKWPWWVWLIIFIVLIFVVSLLVFCCISTGCCGCCGCCGACFAGCCRGPRLQPYEAFEKVHVQ | no change | no change |
| spike (S) protein: N873Q (protein) parent chain: MKSLTYFWLFLPVLSTLSLPQDVTRCSANTNFRRFFSKFNVQAPAVVVLGGYLPIGENQGVNSTWYCAGQHPTASGVHGIFVSHIRGGHGFEIGISQEPFDPSGYQLYLHKATNGNTNATARLRICQFPSIKTLGPTANNDVTTGRNCLFNKAIPAHMSEHSVVGITWDNDRVTVFSDKIYYFYFKNDWSRVATKCYNSGGCAMQYVYEPTYYMLNVTSAGEDGISYQPCTANCIGYAANVFATEPNGHIPEGFSFNNWFLLSNDSTLVHGKVVSNQPLLVNCLLAIPKIYGLGQFFSFNQTIDGVCNGAAVQRAPEALRFNINDTSVILAEGSIVLHTALGTNFSFVCSNSSDPHLATFATPLGATQVPYYCFLKVDTYNSTVYKFLAILPPTVREIVITKYGDFYVNGFGYLHLGLLDAVTINFTGHGTDDDVSGFWTIASTNFVDALIEVQGTAIQRILYCDDPVSQLKCSQVSFDLDDGFYPISSRNLLSHEQPISFVTLPSFNDHSFVNITVSASFGGHSGANLIASDTTINGFSSFCVETRQFTISLFYNVTNSYGYVSKSQDSNCPFTLQSVNDYLSFSKFCVSTSLLASACTIDLFGYPEFGSGVKFTSLYFQFTKGELITGTPKPLVGVTDVSFMTLDVCTKYTIYGFKGEGIITLTNSSFLAGIYYTSDSGQLLAFKNVTSGAVYSVTPCSFSEQAAYVDDDIVGVISSLSNSTFNSTRELPGFFYHSNDGSNCTEPVLVYSNIGVCKSGSIGYVLSKSGQVKIAPTVTGNISIPTNFSMSIRTEYLQLYNTPVSVDCATYVCNGNSRCKQLLTQYIAACKTIESALQLSARLESAEVNSMLTISEEALQLATISSFNGDGYNFTNVLGVSVRDPASGRVVQKRSFIEDLLFNKVVTNGLGTVDEDYKRCSNGRSVADLVCAQYYSGVMVLPGVVDAEKLHMYSASLIGGMVLGGFTAAAALPFSYAVQARLNYLALQTDVLQRNQQLLAESFNSAIGDITSAFESVKEAISQTSKGLNTVAHALTKVQEVVNSQGAALTQLTVQLQHNFQAISSSIDDIYSRLDILSADVQVDRLITGRLSALNAFVAQTLTKYTEVQASRKLAQQKVNECVKSQSQRYGFCGGDGEHIFSLVQAAPQGLLFLHTVLVPGDFVDVIAIAGLCVNDEIALTLREPGLVLFTHELQNHTATEYFVSSRRMFEPRKPTVSDFVQIESCVVTYVNLTRDQLPDVIPDYIDVNKTLYEILASLPNRTGPSLPLDVFNATYLNLTGEIADLEQRSESLRNTTEELQSLIYNINNTLVDLEWLNRVETYIKWPWWVWLIIFIVLIFVVSLLVFCCISTGCCGCCGCCGACFAGCCRGPRLQPYEAFEKVHVQ | abolishes |  |
| spike (S) protein: N425Q (protein) parent chain: MKSLTYFWLFLPVLSTLSLPQDVTRCSANTNFRRFFSKFNVQAPAVVVLGGYLPIGENQGVNSTWYCAGQHPTASGVHGIFVSHIRGGHGFEIGISQEPFDPSGYQLYLHKATNGNTNATARLRICQFPSIKTLGPTANNDVTTGRNCLFNKAIPAHMSEHSVVGITWDNDRVTVFSDKIYYFYFKNDWSRVATKCYNSGGCAMQYVYEPTYYMLNVTSAGEDGISYQPCTANCIGYAANVFATEPNGHIPEGFSFNNWFLLSNDSTLVHGKVVSNQPLLVNCLLAIPKIYGLGQFFSFNQTIDGVCNGAAVQRAPEALRFNINDTSVILAEGSIVLHTALGTNFSFVCSNSSDPHLATFATPLGATQVPYYCFLKVDTYNSTVYKFLAILPPTVREIVITKYGDFYVNGFGYLHLGLLDAVTINFTGHGTDDDVSGFWTIASTNFVDALIEVQGTAIQRILYCDDPVSQLKCSQVSFDLDDGFYPISSRNLLSHEQPISFVTLPSFNDHSFVNITVSASFGGHSGANLIASDTTINGFSSFCVETRQFTISLFYNVTNSYGYVSKSQDSNCPFTLQSVNDYLSFSKFCVSTSLLASACTIDLFGYPEFGSGVKFTSLYFQFTKGELITGTPKPLVGVTDVSFMTLDVCTKYTIYGFKGEGIITLTNSSFLAGIYYTSDSGQLLAFKNVTSGAVYSVTPCSFSEQAAYVDDDIVGVISSLSNSTFNSTRELPGFFYHSNDGSNCTEPVLVYSNIGVCKSGSIGYVLSKSGQVKIAPTVTGNISIPTNFSMSIRTEYLQLYNTPVSVDCATYVCNGNSRCKQLLTQYIAACKTIESALQLSARLESAEVNSMLTISEEALQLATISSFNGDGYNFTNVLGVSVRDPASGRVVQKRSFIEDLLFNKVVTNGLGTVDEDYKRCSNGRSVADLVCAQYYSGVMVLPGVVDAEKLHMYSASLIGGMVLGGFTAAAALPFSYAVQARLNYLALQTDVLQRNQQLLAESFNSAIGDITSAFESVKEAISQTSKGLNTVAHALTKVQEVVNSQGAALTQLTVQLQHNFQAISSSIDDIYSRLDILSADVQVDRLITGRLSALNAFVAQTLTKYTEVQASRKLAQQKVNECVKSQSQRYGFCGGDGEHIFSLVQAAPQGLLFLHTVLVPGDFVDVIAIAGLCVNDEIALTLREPGLVLFTHELQNHTATEYFVSSRRMFEPRKPTVSDFVQIESCVVTYVNLTRDQLPDVIPDYIDVNKTLYEILASLPNRTGPSLPLDVFNATYLNLTGEIADLEQRSESLRNTTEELQSLIYNINNTLVDLEWLNRVETYIKWPWWVWLIIFIVLIFVVSLLVFCCISTGCCGCCGCCGACFAGCCRGPRLQPYEAFEKVHVQ | abolishes |  |
| spike (S) protein: N556Q (protein) parent chain: MKSLTYFWLFLPVLSTLSLPQDVTRCSANTNFRRFFSKFNVQAPAVVVLGGYLPIGENQGVNSTWYCAGQHPTASGVHGIFVSHIRGGHGFEIGISQEPFDPSGYQLYLHKATNGNTNATARLRICQFPSIKTLGPTANNDVTTGRNCLFNKAIPAHMSEHSVVGITWDNDRVTVFSDKIYYFYFKNDWSRVATKCYNSGGCAMQYVYEPTYYMLNVTSAGEDGISYQPCTANCIGYAANVFATEPNGHIPEGFSFNNWFLLSNDSTLVHGKVVSNQPLLVNCLLAIPKIYGLGQFFSFNQTIDGVCNGAAVQRAPEALRFNINDTSVILAEGSIVLHTALGTNFSFVCSNSSDPHLATFATPLGATQVPYYCFLKVDTYNSTVYKFLAILPPTVREIVITKYGDFYVNGFGYLHLGLLDAVTINFTGHGTDDDVSGFWTIASTNFVDALIEVQGTAIQRILYCDDPVSQLKCSQVSFDLDDGFYPISSRNLLSHEQPISFVTLPSFNDHSFVNITVSASFGGHSGANLIASDTTINGFSSFCVETRQFTISLFYNVTNSYGYVSKSQDSNCPFTLQSVNDYLSFSKFCVSTSLLASACTIDLFGYPEFGSGVKFTSLYFQFTKGELITGTPKPLVGVTDVSFMTLDVCTKYTIYGFKGEGIITLTNSSFLAGIYYTSDSGQLLAFKNVTSGAVYSVTPCSFSEQAAYVDDDIVGVISSLSNSTFNSTRELPGFFYHSNDGSNCTEPVLVYSNIGVCKSGSIGYVLSKSGQVKIAPTVTGNISIPTNFSMSIRTEYLQLYNTPVSVDCATYVCNGNSRCKQLLTQYIAACKTIESALQLSARLESAEVNSMLTISEEALQLATISSFNGDGYNFTNVLGVSVRDPASGRVVQKRSFIEDLLFNKVVTNGLGTVDEDYKRCSNGRSVADLVCAQYYSGVMVLPGVVDAEKLHMYSASLIGGMVLGGFTAAAALPFSYAVQARLNYLALQTDVLQRNQQLLAESFNSAIGDITSAFESVKEAISQTSKGLNTVAHALTKVQEVVNSQGAALTQLTVQLQHNFQAISSSIDDIYSRLDILSADVQVDRLITGRLSALNAFVAQTLTKYTEVQASRKLAQQKVNECVKSQSQRYGFCGGDGEHIFSLVQAAPQGLLFLHTVLVPGDFVDVIAIAGLCVNDEIALTLREPGLVLFTHELQNHTATEYFVSSRRMFEPRKPTVSDFVQIESCVVTYVNLTRDQLPDVIPDYIDVNKTLYEILASLPNRTGPSLPLDVFNATYLNLTGEIADLEQRSESLRNTTEELQSLIYNINNTLVDLEWLNRVETYIKWPWWVWLIIFIVLIFVVSLLVFCCISTGCCGCCGCCGACFAGCCRGPRLQPYEAFEKVHVQ | no change | no change |
